Legend:
Assay in all cases: holdup assay
Set-up in all cases: key: below the threshold = too weak to quantify, mostly under pKd 3.1 to 4
PDZD2_3, O15018 = target: T1, PDZD2_3, O15018
T1 sequence (O15018 581-682, limits assumed, looked up): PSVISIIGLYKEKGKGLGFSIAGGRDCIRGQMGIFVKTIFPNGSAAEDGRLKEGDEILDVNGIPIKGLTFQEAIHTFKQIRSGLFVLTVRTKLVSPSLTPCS

PARD3_1, Q8TEW0 = target: PARD3_1, Q8TEW0
PDZD8, Q8NEN9 = target: T2, PDZD8, Q8NEN9
T2 sequence (Q8NEN9 361-459, limits assumed, looked up): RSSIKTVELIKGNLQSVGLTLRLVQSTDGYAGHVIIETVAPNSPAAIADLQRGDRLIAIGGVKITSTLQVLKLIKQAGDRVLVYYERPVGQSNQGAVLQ

MAGI3_5, Q5TCQ9 = target: MAGI3_5, Q5TCQ9
Sequence of MAGI3_5, Q5TCQ9 (Q5TCQ9 847-941): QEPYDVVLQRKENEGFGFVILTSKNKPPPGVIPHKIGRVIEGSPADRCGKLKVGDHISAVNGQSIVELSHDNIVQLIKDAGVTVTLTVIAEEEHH

LIMK1, P53667 = target: LIMK1, P53667
Sequence of LIMK1, P53667 (P53667 155-268): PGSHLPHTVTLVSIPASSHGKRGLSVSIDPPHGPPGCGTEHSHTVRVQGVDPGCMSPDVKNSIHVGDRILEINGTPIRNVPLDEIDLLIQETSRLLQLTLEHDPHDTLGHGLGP

PTPN13_5, Q12923 = target: T3, PTPN13_5, Q12923
T3 sequence (Q12923 1877-1975, limits assumed, looked up): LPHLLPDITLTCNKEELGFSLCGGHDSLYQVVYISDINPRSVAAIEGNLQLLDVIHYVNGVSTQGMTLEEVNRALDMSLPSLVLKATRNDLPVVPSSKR

Inadl_7, Q8NI35 = target: Inadl_7, Q8NI35
Sequence of Inadl_7, Q8NI35 (Q8NI35 1219-1332): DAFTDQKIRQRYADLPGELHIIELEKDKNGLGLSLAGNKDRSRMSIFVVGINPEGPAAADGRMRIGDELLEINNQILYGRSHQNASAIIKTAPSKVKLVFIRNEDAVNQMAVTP

MPP1, Q00013 = target: T4, MPP1, Q00013
T4 sequence (Q00013 66-162, limits assumed, looked up): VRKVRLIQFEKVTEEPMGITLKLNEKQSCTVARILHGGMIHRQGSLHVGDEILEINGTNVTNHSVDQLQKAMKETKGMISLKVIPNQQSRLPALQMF

MPDZ_6, O75970 = target: T5, MPDZ_6, O75970
T5 sequence (O75970 1003-1099, limits assumed, looked up): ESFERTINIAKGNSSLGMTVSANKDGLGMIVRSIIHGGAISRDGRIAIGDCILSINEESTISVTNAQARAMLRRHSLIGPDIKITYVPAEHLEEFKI

MAGIX, Q9H6Y5 = target: MAGIX, Q9H6Y5
Sequence of MAGIX, Q9H6Y5 (Q9H6Y5 118-211): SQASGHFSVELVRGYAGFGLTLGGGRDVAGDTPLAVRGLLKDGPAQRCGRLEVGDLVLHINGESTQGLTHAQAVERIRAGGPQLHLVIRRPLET

PDZD11, Q5EBL8 = target: T6, PDZD11, Q5EBL8
T6 sequence (Q5EBL8 42-139, limits assumed, looked up): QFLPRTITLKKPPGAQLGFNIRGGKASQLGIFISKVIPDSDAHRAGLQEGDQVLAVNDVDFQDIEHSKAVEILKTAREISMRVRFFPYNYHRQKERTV

AHNAK2, Q8IVF2 = target: AHNAK2, Q8IVF2
Sequence of AHNAK2, Q8IVF2 (Q8IVF2 108-193): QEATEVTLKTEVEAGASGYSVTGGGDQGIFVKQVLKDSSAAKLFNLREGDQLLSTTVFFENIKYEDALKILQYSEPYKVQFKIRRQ

MPDZ_7, O75970 = target: T7, MPDZ_7, O75970
T7 sequence (O75970 1146-1253, limits assumed, looked up): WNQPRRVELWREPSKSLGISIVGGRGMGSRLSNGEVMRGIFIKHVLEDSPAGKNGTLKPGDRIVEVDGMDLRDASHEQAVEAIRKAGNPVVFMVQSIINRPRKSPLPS

SYNJ2BP, P57105 = target: T8, SYNJ2BP, P57105
T8 sequence (P57105 8-110, limits assumed, looked up): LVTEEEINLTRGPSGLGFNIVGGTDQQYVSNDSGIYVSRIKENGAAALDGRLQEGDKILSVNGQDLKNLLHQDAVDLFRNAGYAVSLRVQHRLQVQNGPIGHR

PDZD7_2, Q9H5P4 = target: T9, PDZD7_2, Q9H5P4; conditions: plain residues with an end cap or a label only (N-terminal biotin on a linker: (peg)3)
T9 sequence (Q9H5P4 205-303, limits assumed, looked up): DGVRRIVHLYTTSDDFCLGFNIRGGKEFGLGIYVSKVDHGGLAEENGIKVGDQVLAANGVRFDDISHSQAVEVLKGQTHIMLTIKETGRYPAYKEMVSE

PARD3B_3, Q8TEW8 = target: PARD3B_3, Q8TEW8
Sequence of PARD3B_3, Q8TEW8 (Q8TEW8 490-594): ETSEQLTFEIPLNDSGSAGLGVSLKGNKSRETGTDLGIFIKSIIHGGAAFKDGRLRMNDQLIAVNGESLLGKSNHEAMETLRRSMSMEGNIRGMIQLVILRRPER

NHERF1_2, O14745 = target: T10, NHERF1_2, O14745
T10 sequence (O14745 149-244, limits assumed, looked up): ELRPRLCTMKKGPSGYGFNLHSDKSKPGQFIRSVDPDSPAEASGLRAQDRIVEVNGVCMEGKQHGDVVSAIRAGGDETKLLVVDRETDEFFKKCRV

CNKSR1, Q969H4 = target: T11, CNKSR1, Q969H4; conditions: plain residues with an end cap or a label only (N-terminal biotin on a linker: (peg)3)
T11 sequence (Q969H4 191-295, limits assumed, looked up): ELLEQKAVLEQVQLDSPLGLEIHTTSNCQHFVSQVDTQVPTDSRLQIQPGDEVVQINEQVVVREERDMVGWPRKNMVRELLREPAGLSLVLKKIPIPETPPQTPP

IL16_2, Q14005 = target: IL16_2, Q14005
Sequence of IL16_2, Q14005 (Q14005 350-450): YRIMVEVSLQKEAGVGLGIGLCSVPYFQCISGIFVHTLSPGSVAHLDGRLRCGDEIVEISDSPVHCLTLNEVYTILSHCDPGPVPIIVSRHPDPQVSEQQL

MPDZ_2, O75970 = target: T12, MPDZ_2, O75970
T12 sequence (O75970 252-347, limits assumed, looked up): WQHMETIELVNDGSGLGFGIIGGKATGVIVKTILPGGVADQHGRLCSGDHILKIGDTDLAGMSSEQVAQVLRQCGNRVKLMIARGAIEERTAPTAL

PDZRN3_2, Q9UPQ7 = target: T13, PDZRN3_2, Q9UPQ7; conditions: plain residues with an end cap or a label only (N-terminal biotin on a linker: (peg)3)
T13 sequence (Q9UPQ7 414-513, limits assumed, looked up): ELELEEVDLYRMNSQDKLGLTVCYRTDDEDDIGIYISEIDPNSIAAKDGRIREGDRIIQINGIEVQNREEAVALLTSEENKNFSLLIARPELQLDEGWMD

GIPC1, O14908 = target: T14, GIPC1, O14908; conditions: plain residues with an end cap or a label only (N-terminal biotin on a linker: (peg)3)
T14 sequence (O14908 128-223, limits assumed, looked up): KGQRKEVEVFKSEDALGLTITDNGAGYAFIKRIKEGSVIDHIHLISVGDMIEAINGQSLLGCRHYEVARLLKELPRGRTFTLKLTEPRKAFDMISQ

PDZRN4_2, Q6ZMN7 = target: PDZRN4_2, Q6ZMN7
Sequence of PDZRN4_2, Q6ZMN7 (Q6ZMN7 389-498): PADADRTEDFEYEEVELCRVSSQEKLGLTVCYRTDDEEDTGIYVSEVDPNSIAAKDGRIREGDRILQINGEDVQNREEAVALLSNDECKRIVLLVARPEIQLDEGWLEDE

[1] = plain residues with an end cap or a label only (N-terminal biotin on a linker: (peg)3)
[2] = modified: phospho on T at position -2 from the C-terminal residue

Measured: pKd

Sequence of PARD3_1, Q8TEW0 (Q8TEW0 264-372): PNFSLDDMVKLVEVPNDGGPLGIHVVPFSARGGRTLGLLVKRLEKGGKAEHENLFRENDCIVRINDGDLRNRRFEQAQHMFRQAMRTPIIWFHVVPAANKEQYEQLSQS

RRRRSQSRESQC [HBV-HBc, P03193]
4.59: SYNJ2BP, P57105; [1]
3.96: NHERF1_2, O14745; [1]
5.58: GIPC1, O14908
below the threshold: PDZD2_3, O15018; [1] | PARD3_1, Q8TEW0; [1] | PDZD8, Q8NEN9; [1] | MAGI3_5, Q5TCQ9; [1] | LIMK1, P53667; [1] | PTPN13_5, Q12923; [1] | Inadl_7, Q8NI35; [1] | MPP1, Q00013; [1] | MPDZ_6, O75970; [1] | MAGIX, Q9H6Y5; [1] | PDZD11, Q5EBL8; [1] | AHNAK2, Q8IVF2; [1] | MPDZ_7, O75970; [1] | PDZD7_2, Q9H5P4 | PARD3B_3, Q8TEW8; [1] | IL16_2, Q14005; [1] | MPDZ_2, O75970; [1] | PDZRN3_2, Q9UPQ7 | PDZRN4_2, Q6ZMN7; [1]
3.9: CNKSR1, Q969H4

SSRTRRETQL [HPV16-E6_-2P, P03126]
below the threshold: PDZD2_3, O15018; [2] | PARD3_1, Q8TEW0; [2] | PDZD8, Q8NEN9; [2] | MAGI3_5, Q5TCQ9; [2] | LIMK1, P53667; [2] | PTPN13_5, Q12923; [2] | Inadl_7, Q8NI35; [2] | MPP1, Q00013; [2] | MPDZ_6, O75970; [2] | MAGIX, Q9H6Y5; [2] | PDZD11, Q5EBL8; [2] | AHNAK2, Q8IVF2; [2] | MPDZ_7, O75970; [2] | SYNJ2BP, P57105; [2] | PARD3B_3, Q8TEW8; [2] | NHERF1_2, O14745; [2] | IL16_2, Q14005; [2] | MPDZ_2, O75970; [2]
4.26: PDZRN4_2, Q6ZMN7; [2]

QQSMSSADSTQA [SARS-Cov2-N, P0DTC9]
4.46: GIPC1, O14908
below the threshold: PDZD2_3, O15018; [1] | PARD3_1, Q8TEW0; [1] | PDZD8, Q8NEN9; [1] | MAGI3_5, Q5TCQ9; [1] | LIMK1, P53667; [1] | PTPN13_5, Q12923; [1] | Inadl_7, Q8NI35; [1] | MPP1, Q00013; [1] | MPDZ_6, O75970; [1] | MAGIX, Q9H6Y5; [1] | PDZD11, Q5EBL8; [1] | AHNAK2, Q8IVF2; [1] | MPDZ_7, O75970; [1] | SYNJ2BP, P57105; [1] | PDZD7_2, Q9H5P4 | PARD3B_3, Q8TEW8; [1] | NHERF1_2, O14745; [1] | CNKSR1, Q969H4 | IL16_2, Q14005; [1] | MPDZ_2, O75970; [1] | PDZRN3_2, Q9UPQ7 | PDZRN4_2, Q6ZMN7; [1]

RYEDTTLVEDTVL [WNV-NS5, Q9Q6P4]
3.66: SYNJ2BP, P57105; [1]
3.94: MPDZ_6, O75970; [1]
below the threshold: PDZD2_3, O15018; [1] | PARD3_1, Q8TEW0; [1] | PDZD8, Q8NEN9; [1] | MAGI3_5, Q5TCQ9; [1] | LIMK1, P53667; [1] | PTPN13_5, Q12923; [1] | Inadl_7, Q8NI35; [1] | MPP1, Q00013; [1] | MAGIX, Q9H6Y5; [1] | PDZD11, Q5EBL8; [1] | AHNAK2, Q8IVF2; [1] | MPDZ_7, O75970; [1] | PDZD7_2, Q9H5P4 | NHERF1_2, O14745; [1] | CNKSR1, Q969H4 | IL16_2, Q14005; [1] | MPDZ_2, O75970; [1] | PDZRN3_2, Q9UPQ7 | GIPC1, O14908 | PDZRN4_2, Q6ZMN7; [1]
4.05: PARD3B_3, Q8TEW8; [1]
